Here are results for six molecules from KR20150001391A.

Sequences and labels used below:
B1: (2E9+GFP) (protein, part only; not given: linker, GFP, His tag, part only)
chain, part: ESGGGSVQAGGSLRLSCTASGFTFADSDMGWYRQAPGKERERVAAIDSDGRTSYADSVKGRFTISKDNAKNTLYLQMNSLKPEDTAMYYCAAGVPTYDSSWCSRDYWGKGTQVTVSS
B2: (2B12+GFP) (protein, part only; not given: linker, GFP, His tag, part only)
chain, part: ESGGGSVQVGESLRLACTASEFTFDDTDVGWYRQAPGNECELVSSINSDGGTYYTDSVKGRFTISLDNGKNTVYLQMDSLKPEDTAVYYCVADAKVKAQALGTLLCRILGNWGQGTQVTVSS
B3: (53A1+GFP) (protein, part only; not given: linker, GFP, His tag, part only)
chain, part: B2 chain, part
B4: (2E9+RFP) (protein, part only; not given: linker, RFP, His tag, part only)
chain, part: B1 chain, part
B5: (2B12+RFP) (protein, part only; not given: linker, RFP, His tag, part only)
chain, part: B2 chain, part
B6: (53A1+RFP) (protein, part only; not given: linker, RFP, His tag, part only)
chain, part: B2 chain, part

The target of one assay is M13 박테리오파지에서 전시되는 스트렙타비딘(streptavidin). Briefly: fluorescence ELISA; plate coated with streptavidin-displaying M13 phage; fusion protein at 10, 50, 100 μg/ml; ex 395 nm / em 509 nm; reference is biotin-bound GFP.
For B1, the fold fluorescence against biotin-bound GFP was 2 배 (fold).
The same measure, in the same setting: under B2 stands 2 배 (fold); under B3, 2 배 (fold).

For the next assay the target is unchanged. Briefly: fluorescence ELISA; plate coated with streptavidin-displaying M13 phage; fusion protein at 10, 50, 100 μg/ml; ex 554 nm / em 581 nm; reference is biotin-bound RFP.
In the case of B4, the fold fluorescence against biotin-bound RFP is 2 배 (fold).
On the same count and under the same terms, with B5 the figure was 2 배 (fold); with B6, 2 배 (fold).
